According to patent US20130089497A1 (Genentech, published 2013):

T1: gD tagged human FcRH2 on SVT2 cells (human, UniProt Q96LA5 20-508)
T1 construct: whole, on cells; also called huFcRH2; not shown: gD tag; the construct for this FcRH is not described
T1 sequence (looked up): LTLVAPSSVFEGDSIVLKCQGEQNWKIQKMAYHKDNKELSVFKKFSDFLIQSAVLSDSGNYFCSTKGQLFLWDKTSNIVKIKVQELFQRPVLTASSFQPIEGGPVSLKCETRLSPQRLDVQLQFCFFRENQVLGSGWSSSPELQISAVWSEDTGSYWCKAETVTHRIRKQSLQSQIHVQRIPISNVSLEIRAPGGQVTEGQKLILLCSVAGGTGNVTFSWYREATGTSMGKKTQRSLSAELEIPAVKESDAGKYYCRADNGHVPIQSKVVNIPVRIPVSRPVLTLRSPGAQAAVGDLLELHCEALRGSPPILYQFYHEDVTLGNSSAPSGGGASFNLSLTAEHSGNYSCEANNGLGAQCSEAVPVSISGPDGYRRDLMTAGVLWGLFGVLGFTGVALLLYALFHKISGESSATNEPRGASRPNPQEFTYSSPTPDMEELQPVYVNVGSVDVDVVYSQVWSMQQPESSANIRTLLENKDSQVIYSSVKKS

T2: gD tagged human FcRH4 on SVT2 cells (human, UniProt Q96PJ5 20-515)
T2 construct: whole, on cells; also called huFcRH4; IRTA1; not shown: gD tag; the construct for this FcRH is not described
T2 sequence (looked up): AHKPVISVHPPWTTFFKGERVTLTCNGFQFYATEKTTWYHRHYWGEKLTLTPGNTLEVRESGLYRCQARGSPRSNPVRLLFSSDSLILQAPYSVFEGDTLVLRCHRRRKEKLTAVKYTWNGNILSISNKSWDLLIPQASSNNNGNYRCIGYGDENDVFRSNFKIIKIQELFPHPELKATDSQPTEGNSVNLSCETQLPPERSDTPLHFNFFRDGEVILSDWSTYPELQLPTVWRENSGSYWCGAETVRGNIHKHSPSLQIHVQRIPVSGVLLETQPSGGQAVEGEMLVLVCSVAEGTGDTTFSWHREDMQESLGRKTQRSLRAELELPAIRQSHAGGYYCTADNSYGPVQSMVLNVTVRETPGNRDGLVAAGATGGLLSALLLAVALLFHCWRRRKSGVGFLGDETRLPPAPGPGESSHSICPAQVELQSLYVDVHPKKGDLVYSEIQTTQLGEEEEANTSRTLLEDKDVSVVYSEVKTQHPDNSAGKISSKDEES

T3: gD tagged human FcRH6 on SVT2 cells (human, UniProt Q6DN72 20-434)
T3 construct: whole, on cells; also called huFcRH6; not shown: gD tag; the construct for this FcRH is not described
T3 sequence (looked up): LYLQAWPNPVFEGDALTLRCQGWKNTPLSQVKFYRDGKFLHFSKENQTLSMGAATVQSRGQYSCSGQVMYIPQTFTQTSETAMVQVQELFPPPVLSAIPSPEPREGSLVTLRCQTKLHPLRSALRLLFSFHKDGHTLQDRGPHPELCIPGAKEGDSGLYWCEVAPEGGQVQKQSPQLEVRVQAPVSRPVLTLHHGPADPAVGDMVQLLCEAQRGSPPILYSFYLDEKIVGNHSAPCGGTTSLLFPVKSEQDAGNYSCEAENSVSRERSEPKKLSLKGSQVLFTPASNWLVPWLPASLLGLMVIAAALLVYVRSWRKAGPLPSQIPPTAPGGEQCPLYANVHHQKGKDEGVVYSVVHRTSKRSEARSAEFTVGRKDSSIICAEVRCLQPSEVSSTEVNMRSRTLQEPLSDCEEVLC

T4: gD tagged human FcRH1 on SVT2 cells (human, UniProt Q96LA6 17-429)
T4 construct: whole, on cells; also called huFcRH1; not shown: gD tag
T4 sequence (looked up): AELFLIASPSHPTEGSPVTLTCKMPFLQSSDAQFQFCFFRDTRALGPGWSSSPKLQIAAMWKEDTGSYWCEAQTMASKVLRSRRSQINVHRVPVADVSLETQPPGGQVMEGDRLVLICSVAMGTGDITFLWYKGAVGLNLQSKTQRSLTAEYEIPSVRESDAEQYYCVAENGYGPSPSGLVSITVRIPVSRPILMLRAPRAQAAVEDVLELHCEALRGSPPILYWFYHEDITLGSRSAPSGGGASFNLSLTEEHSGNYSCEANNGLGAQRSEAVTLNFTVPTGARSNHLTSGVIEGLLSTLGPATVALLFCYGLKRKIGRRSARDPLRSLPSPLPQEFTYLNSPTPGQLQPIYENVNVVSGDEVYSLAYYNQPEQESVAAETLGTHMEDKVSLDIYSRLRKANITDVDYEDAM

T5: gD tagged human FcRH3 on SVT2 cells (human, UniProt Q96P31 18-734)
T5 construct: whole, on cells; also called huFcRH3; not shown: gD tag; the construct for this FcRH is not described
T5 sequence (looked up): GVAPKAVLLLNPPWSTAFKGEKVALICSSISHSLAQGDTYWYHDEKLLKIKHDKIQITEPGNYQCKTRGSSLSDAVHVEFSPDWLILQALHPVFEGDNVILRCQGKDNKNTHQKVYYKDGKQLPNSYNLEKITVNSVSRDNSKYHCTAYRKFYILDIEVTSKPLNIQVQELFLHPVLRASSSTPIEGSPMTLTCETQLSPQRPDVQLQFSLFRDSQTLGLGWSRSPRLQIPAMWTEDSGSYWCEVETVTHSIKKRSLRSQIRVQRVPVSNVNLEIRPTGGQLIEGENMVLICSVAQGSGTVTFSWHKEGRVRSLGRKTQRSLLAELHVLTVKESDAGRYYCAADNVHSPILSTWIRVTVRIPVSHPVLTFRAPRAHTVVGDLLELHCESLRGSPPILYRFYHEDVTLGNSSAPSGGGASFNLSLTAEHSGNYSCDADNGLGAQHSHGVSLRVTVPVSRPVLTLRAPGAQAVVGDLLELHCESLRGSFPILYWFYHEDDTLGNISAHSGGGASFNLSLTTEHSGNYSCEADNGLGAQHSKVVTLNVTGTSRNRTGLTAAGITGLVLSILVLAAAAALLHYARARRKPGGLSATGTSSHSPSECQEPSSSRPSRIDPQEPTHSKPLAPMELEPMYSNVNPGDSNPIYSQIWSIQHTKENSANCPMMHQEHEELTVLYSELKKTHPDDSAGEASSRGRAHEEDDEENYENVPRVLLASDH

T6: cynomolgus FcRH5 on stably transfected SVT2 cells (cynomologous monkey)
T6 construct: also called cyno FcRH5; cynoFcRH5
T6 chain: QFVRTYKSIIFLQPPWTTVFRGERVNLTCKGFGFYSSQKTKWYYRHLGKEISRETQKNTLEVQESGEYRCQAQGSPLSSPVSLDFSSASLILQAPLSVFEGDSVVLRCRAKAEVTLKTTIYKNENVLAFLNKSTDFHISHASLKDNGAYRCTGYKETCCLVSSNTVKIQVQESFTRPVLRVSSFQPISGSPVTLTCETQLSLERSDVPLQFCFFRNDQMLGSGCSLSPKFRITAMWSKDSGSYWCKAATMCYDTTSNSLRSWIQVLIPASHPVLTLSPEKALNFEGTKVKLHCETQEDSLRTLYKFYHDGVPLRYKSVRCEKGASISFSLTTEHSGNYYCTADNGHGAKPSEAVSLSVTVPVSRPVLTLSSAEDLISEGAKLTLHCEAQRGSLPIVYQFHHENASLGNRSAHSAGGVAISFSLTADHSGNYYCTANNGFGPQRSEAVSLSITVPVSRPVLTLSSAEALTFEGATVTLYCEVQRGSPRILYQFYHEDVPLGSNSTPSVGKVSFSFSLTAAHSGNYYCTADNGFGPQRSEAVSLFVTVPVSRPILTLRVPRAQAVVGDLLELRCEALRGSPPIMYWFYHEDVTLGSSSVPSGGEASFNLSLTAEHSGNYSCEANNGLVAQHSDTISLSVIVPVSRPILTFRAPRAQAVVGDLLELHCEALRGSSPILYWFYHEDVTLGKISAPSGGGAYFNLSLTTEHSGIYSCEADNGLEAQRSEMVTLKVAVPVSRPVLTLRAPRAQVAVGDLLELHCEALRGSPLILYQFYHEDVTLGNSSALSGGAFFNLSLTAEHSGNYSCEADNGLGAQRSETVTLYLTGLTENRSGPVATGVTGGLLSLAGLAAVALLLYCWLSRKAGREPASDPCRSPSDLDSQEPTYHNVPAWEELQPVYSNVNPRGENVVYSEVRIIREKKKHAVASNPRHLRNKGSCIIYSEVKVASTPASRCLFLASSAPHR

B1: chimeric anti-human FcRH5 antibody 7D11 (antibody, human IgG1, kappa)
heavy: not shown
light: DILLTQSPAILSVSPGERVSFSCRSSQSIGTNIHWYQQRTNGSPRLLIKFASESLSGIPSRFSGSGSGTDFTLSINSVESEDFADYYCQQSNSWPLTFGAGTKVEIKRTVAAPSVFIFPPSDEQLKSGTASVVCLLNNFYPREAKVQWKVDNALQSGNSQESVTEQDSKDSTYSLSSTLTLSKADYEKHKVYACEVTHQGLSSPVTKSFNRGEC
notes: Mouse/human chimeric IgG1 kappa expressed in 293 cells; also called ch7D11; Ch anti-FcRH5 (7D11)
B2: chimeric anti-human FcRH5 antibody 13G9 (antibody, human IgG1, kappa)
heavy: not shown
light: DIVMTQSQKIMSTSVGDRVNVTCKASQNVGSNVAWYHQKPGQSPKALIYSASYRYSGVPDRFTGSGSGTDFTLTISNVQSEDLAEYFCQQYKTWTFGGGTKLEIKRTVAAPSVFIFPPSDEQLKSGTASVVCLLNNFYPREAKVQWKVDNALQSGNSQESVTEQDSKDSTYSLSSTLTLSKADYEKHKVYACEVTHQGLSSPVTKSFNRGEC
notes: Expressed in 293 cells; also called ch13G9; chMAFcRH5 (13G9)

Assays:
[1] = molecular target: T1, gD tagged human FcRH2 on SVT2 cells; test: FACS, SVT2.MSCV.gD.FcRH2 cells, PE mu anti-human IgG
[2] = molecular target: T2, gD tagged human FcRH4 on SVT2 cells; test: FACS, SVT2.MSCV.gD.FcRH4 cells, PE mu anti-human IgG
[3] = molecular target: T3, gD tagged human FcRH6 on SVT2 cells; test: FACS, SVT2.MSCV.gD.FcRH6 cells, PE mu anti-human IgG
[4] = molecular target: T4, gD tagged human FcRH1 on SVT2 cells; test: FACS, SVT2.MSCV.gD.FcRH1 cells, PE mu anti-human IgG
[5] = molecular target: T5, gD tagged human FcRH3 on SVT2 cells; test: FACS, SVT2.MSCV.gD.FcRH3 cells, PE mu anti-human IgG
[6] = molecular target: T6, cynomolgus FcRH5 on stably transfected …; test: Scatchard analysis: 0.5 nM 125I-labeled antibody competed with the unlabeled antibody (50 to 0.02 nM) on SVT2.cyFcRH5 cells, 4 h at 4 C; St. Error 0.091
Experimental: To further determine binding of the FcRH5 murine antibodies and IgG clones, binding of iodinated IgG variants to OPM2 cells expressing human FcRH5 and SVT2 cells expressing cynomologous FcRH5, Scatchard analysis was performed (Table 9A).
For Scatchard analysis, 0.5 nM I¹²⁵ labeled murine or IgG clone anti-FcRH5 was competed against unlabeled murine or IgG clone anti-FcRH5, respectively, ranging from 50 to 0.02 nM (12 step 1:2 serial dilution) in the presence of a transfected OPM2 line stably expressing human-FcRH5 and a transfected SVT2 line stably expressing cynomologous-FcRH5. After a four hour incubation at 4° C., cells were washed and cell pellet counts were read by a gamma counter (1470 WIZARD Automatic Gamma Counter; Perkin Elmer, Walthem, Mass.). All points were done in triplicate and counted for 10 minutes. The average CPM was used for Kd calculation using the New Ligand (Genentech, South San Francisco, Calif.) program.

Binder | binding result [1] | binding result [2] | binding result [3] | binding result [4] | binding result [5] | Kd [6] [nM]
B1 | no binding (tested: 1.0 ug per about 10^6 cells (p-1120)) | no binding (tested: 1.0 ug per about 10^6 cells (p-1120)) | no binding (tested: 1.0 ug per about 10^6 cells (p-1120)) | no binding (tested: 1.0 ug per about 10^6 cells (p-1120)) | no binding (tested: 1.0 ug per about 10^6 cells (p-1120)) | 
B2 |  |  |  |  |  | 1.08
